B1: wild type GSI motif peptide (…), SMRT amino acids 1450-1469 with an amino-terminal cysteine [modified: BODIPY-TMR coupled to the N-terminal cysteine; BODIPY-TMR coupled to the N-terminal cysteine] [not stated] (parent)
chain 1: CPRPLKEGSITQGTPLKYDTG
chain 2: TKPRFTTGLVYDTLMLKHQCTCGSSSSHPEHAGRIQSIWSRLQETGLRGKCECIRGRKATLEELQTVHSEAHTLLYGTNPLNRQKLDSKKLLGSLASVFVRLPCGGVGVDSDTIWNEVHSAGAARLAVGCVVELVFKVATGELKNGFAVVRPPGHHAEESTPMGFCYFNSVAVAAKLLQQRLSVSKILIVDWDVHHGNGTQQAFYSDPSVLYMSLHRYDDGNFFPGSGAPDEVGTGPGVGFNVNMAFTGGLDPPMGDAEYLAAFRTVVMPIASEFAPDVVLVSSGFDAVEGHPTPLGGYNLSARCFGYLTKQLMGLAGGRIVLALEGGHDLTAICDASEACVSALLGNELDPLPEKVLQQRPNANAVRSMEKVMEIHSKYWRCLQRTTSTAGRSLIEAQTCENEEAETVT

Variants of: B1
Experiment: fluorescence anisotropy
Conditions: with HDAC4 catalytic domain

| Kd | Variant |
| --- | --- |
| > 1000 µM | chain 1 CPRPLKEGAITQGTPLKYDTG [chain 1 S9A] |
| > 1000 µM | chain 1 CPRPLKEGTITQGTPLKYDTG [chain 1 S9T] |
| > 1000 µM | chain 1 CPRPLKEGSITQGSPLKYDTG [chain 1 T14S] |
| > 1000 µM | chain 1 CPRPLKEGSITQATPLKYDTG [chain 1 G13A] |
| > 1000 µM | chain 1 CPRPLKEASITQGTPLKYDTG [chain 1 G8A] |
| > 1000 µM | chain 1 CPRPLKEGSATQGTPLKYDTG [chain 1 I10A] |
| > 1000 µM | chain 1 CPRPLKEGSDTQGTPLKYDTG [chain 1 I10D] |
